Measured values from PMC13022675.

Target: GFP-tagged MR1A (MR1-GFP) expressed in clonal cell line D6 (D6ins and D6del mutants) (UniProt Q95460)
Chain of UniProt Q95460 (Q95460 23-341, stated change not applied): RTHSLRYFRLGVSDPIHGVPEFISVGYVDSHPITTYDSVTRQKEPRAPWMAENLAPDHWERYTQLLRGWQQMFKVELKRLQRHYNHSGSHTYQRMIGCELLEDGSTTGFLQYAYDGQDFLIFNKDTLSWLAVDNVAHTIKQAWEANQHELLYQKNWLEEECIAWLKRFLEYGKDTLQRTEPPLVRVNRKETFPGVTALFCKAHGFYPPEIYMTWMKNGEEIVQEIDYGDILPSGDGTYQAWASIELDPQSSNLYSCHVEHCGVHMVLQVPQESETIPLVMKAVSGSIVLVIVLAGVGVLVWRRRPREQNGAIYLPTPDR

β2-microglobulin (from UniProt P61769 21-119) (natural protein)
fully folded MR1 (antibody clone 26.5) remaining at the cell surface 6 h after brefeldin A, flow cytometry: 20%
